Laboratory results reported in US20070020257A1.

Biological target: integrins on cell surface of mucosae
Assay: cell-based or functional assay

B1: RGD-DUP (di unit peptide with the cell attachment motif RGD at the N-terminal region) (peptide)
peptide: RGDTYEAALKQYEADLKKTYEAALKQYEADL
Work on B1 yielded a Titer against PAc (intranasal RGD-DUP given together with an excess of RGDS peptide as inhibitor) (titer (maximum serum dilution)) of 256 and a Titer against PAc (serum of BALB/c mice after intranasal administration of RGD-DUP) (titer (maximum serum dilution)) of 5070.

B2: YIGSR-DUP (di unit peptide with the cell attachment motif YIGSR at the N-terminal region) (peptide)
peptide: YIGSRTYEAALKQYEADLKKTYEAALKQYEADL
In the case of B2, the Titer against PAc (intranasal YIGSR-DUP given together with an excess of YIGSR peptide as inhibitor) (titer (maximum serum dilution)) is reported as 235 and the Titer against PAc (serum of BALB/c mice after intranasal administration of YIGSR-DUP) (titer (maximum serum dilution)) is reported as 1200.
